Laboratory results reported in US20200010567A1 (NEURIMMUNE, published 2020).

Legend:
[1] = molecular target: T1, (PR)15: H-C(PR)15-OH; assay: indirect ELISA, uncoupled peptide coated, antibody titrated [also D00013 FIG. 3F]
T1 construct: synthetic, not coupled to BSA; also called poly-PR DPR protein peptide
T1 peptide: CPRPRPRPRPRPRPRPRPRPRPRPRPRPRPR
Experimental: (§1) In brief, dipeptide repeat proteins were synthesized and purified by Schafer-N(Copenhagen, Denmark): (GA)₁₅: H-CHHHHHH(GA)₁₅-OH; (GP)₁₅: H-C(GP)₁₅-OH; (GR)₁₅: H-C(GR)₁₅-OH; (PA)₁₅: H-C(PA)₁₅-OH; (PR)₁₅: H—C(PR)₁₅-OH. DPR protein peptides were then conjugated via a bifunctional linker (SMCC) to bovine serum albumin (BSA). 96-well microplates (Corning Incorporated, Corning, USA) were coated with BSA-coupled or -uncoupled dipeptide repeat protein peptides at a concentration of either 5 μg/ml or 20 μg/ml in coating buffer (15 mM Na₂CO₃, 35 mM NaHCO₃, pH 9.42). Non-specific binding sites were blocked for 1 h at room temperature with PBS/0.1% Tween®-20 containing 2% BSA (Sigma-Aldrich, Buchs, Switzerland). Primary antibodies were diluted to the indicated concentrations and incubated 1 h at room temperature, followed by incubation with a donkey anti-human IgG Fcγ-specific antibody conjugated with HRP (Jackson ImmunoResearch Laboratories, Inc., West Grove, USA). Binding was determined by measurement of HRP activity in a standard colorimetric assay. EC₅₀ values were estimated by non-linear regression using GraphPad Prism software (San Diego, USA).

[2] = molecular target: T2, GP6: H-(GP)6HHHHHH-NH2; assay: indirect ELISA, His-tagged peptide coated at 50 ug/ml, antibody titrated
T2 peptide: H-GPGPGPGPGPGPHHHHHH-NH2
Experimental: as §1, with “96-well” for “In brief, dipeptide repeat proteins were synthesized and purified by Schafer-N(Copenhagen, Denmark): (GA)₁₅: H-CHHHHHH(GA)₁₅-OH; (GP)₁₅: H-C(GP)₁₅-OH; (GR)₁₅: H-C(GR)₁₅-OH; (PA)₁₅: H-C(PA)₁₅-OH; (PR)₁₅: H—C(PR)₁₅-OH. DPR protein peptides were then conjugated via a bifunctional linker (SMCC) to bovine serum albumin (BSA). 96-well”, “with” for “with BSA-coupled or -uncoupled”, “50” for “either 5 μg/ml or 20”
(§2) High affinity binding was detected for poly-GA DPRs harboring 10 or 20 (GA)-repeats, reflected in an EC₅₀ in the subnanomolar or low nanomolar range (FIGS. 7A, 7C-7I).

[3] = molecular target: T3, GR10: H-(GR)10HHHHHH-NH2 (C-terminal amide); assay: as above
T3 peptide: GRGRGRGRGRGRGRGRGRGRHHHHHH
Experimental: as §1, with “96-well” for “In brief, dipeptide repeat proteins were synthesized and purified by Schafer-N(Copenhagen, Denmark): (GA)₁₅: H-CHHHHHH(GA)₁₅-OH; (GP)₁₅: H-C(GP)₁₅-OH; (GR)₁₅: H-C(GR)₁₅-OH; (PA)₁₅: H-C(PA)₁₅-OH; (PR)₁₅: H—C(PR)₁₅-OH. DPR protein peptides were then conjugated via a bifunctional linker (SMCC) to bovine serum albumin (BSA). 96-well”, “with” for “with BSA-coupled or -uncoupled”, “50” for “either 5 μg/ml or 20”
as §2

[4] = molecular target: T4, GA4: H-(GA)4HHHHHH-NH2; assay: indirect ELISA, His-tagged peptide coated at 50 ug/ml, antibody titrated [also D00025 FIG. 7G]
T4 peptide: H-GAGAGAGAHHHHHH-NH2
Excerpt: (§3) In brief, dipeptide repeat proteins were synthesized and purified by Schafer-N (Copenhagen, Denmark): GA₂₀: H-(GA)₂₀HHHHHH-NH₂; GA₁₀: H-(GA)₁₀HHHHHH-NH₂; GA₆: H-(GA)₆HHHHHH-NH₂; GA₅: H-(GA)₅HHHHHH-NH₂; GA₄: H-(GA)₄HHHHHH-NH₂; GA₃: H-(GA)₃HHHHHH-NH₂; GA₂: H-(GA)₂HHHHHH-NH₂; GP₂₀: H-(GP)₂₀HHHHHH-NH₂; GP₁₀: H-(GP)₁₀HHHHHH-NH₂; GP₆: H-(GP)₆HHHHHH-NH₂; GP₅: H-(GP)₅HHHHHH-NH₂; GP₄: H-(GP)₄HHHHHH-NH₂; GP₃: H-(GP)₃HHHHHH-NH₂; GP₂: H-(GP)₂HHHHHH-NH₂. GR₂₀: H-(GR)₂₀HHHHHH-NH₂; GR₁₀: H-(GR)₁₀HHHHHH-NH₂; GR₆: H-(GR)₆HHHHHH-NH₂; GR₅: H-(GR)₅HHHHHH-NH₂; GR₄: H-(GR)₄HHHHHH-NH₂; GR₃: H-(GR)₃HHHHHH-NH₂; GR₂: H-(GR)₂HHHHHH-NH₂; PA₂₀: H-(PA)₂₀HHHHHH-NH₂; PA₁₀: H-(PA)₁₀HHHHHH-NH₂; PA₆: H-(PA)₆HHHHHH-NH₂; PA₅: H-(PA)₅HHHHHH-NH₂; PA₄: H-(PA)₄HHHHHH-NH₂; PA₃: H-(PA)₃HHHHHH-NH₂; PA₂: H-(PA)₂HHHHHH-NH₂; PR₂₀: H-(PR)₂₀HHHHHH-NH₂; PR₁₀: H-(PR)₁₀HHHHHH-NH₂; PR₆: H-(PR)₆HHHHHH-NH₂; PR₅: H-(PR)₅HHHHHH-NH₂; PR₄: H-(PR)₄HHHHHH-NH₂; PR₃: H-(PR)₃HHHHHH-NH₂; PR₂: H-(PR)₂HHHHHH-NH₂. 96-well microplates (Corning Incorporated, Corning, USA) were coated with dipeptide repeat protein peptides at a concentration of 50 μg/ml in coating buffer (15 mM Na₂CO₃, 35 mM NaHCO₃, pH 9.42). Non-specific binding sites were blocked for 1 h at room temperature with PBS/0.1% Tween®-20 containing 2% BSA (Sigma-Aldrich, Buchs, Switzerland). Primary antibodies were diluted to the indicated concentrations and incubated 1 h at room temperature, followed by incubation with a donkey anti-human IgG Fcγ-specific antibody conjugated with HRP (Jackson ImmunoResearch Laboratories, Inc., West Grove, USA). Binding was determined by measurement of HRP activity in a standard colorimetric assay. EC₅₀ values were estimated by non-linear regression using GraphPad Prism software (San Diego, USA).

[5] = molecular target: T5, GA2: H-(GA)2HHHHHH-NH2; assay: as above
T5 peptide: H-GAGAHHHHHH-NH2
Excerpt: as §3

[6] = molecular target: T6, GA3: H-(GA)3HHHHHH-NH2; assay: as above
T6 peptide: H-GAGAGAHHHHHH-NH2
Excerpt: as §3

[7] = molecular target: T7, GA5: H-(GA)5HHHHHH-NH2; assay: as above
T7 peptide: H-GAGAGAGAGAHHHHHH-NH2
Excerpt: as §3

B1: NI-308.24E11 (antibody, V domains shown)
VH: QVQLQESGPGLVKPSETLSLTCTVSTTSLRSYFWSWIRQPPGKGLEWIGYVYYSGSTIYNPSLKNRVTISIDTSKNQFSLNLRSVTAADTAMYFCARGVPAETDARDFPPYYFDHWGQGTLVTVSS
VL: CDIQLTQSPSSLSASVGNRITFTCQASQDIRYYLNWYQQKPGKAPKLLIYDVSNLDTGVPPRFSGSGSGTNFTFTISSLQPEDIAVYYCQQYEGLPVTFGGGTKVEIK
notes: Recombinant complete human IgG1, kappa
With B1 the EC50 [1] was 11.3 nM.

B2: NI-308.46E9 (antibody, V domains shown)
VH: QVQLQESGPGLVKPSETLSLTCTVSGASISGSTYYWGWIRQPPGKGLEYIGRIYYSGSTYYNPSLKSRATISVDTSKNQLSLTLSSVTAADTAVYYCVRPFYAGSGNSPFDYWGQGTLVTVSS
VL: CEIVLTQSPATVSVSPGERATLSCRASQSVSTNLAWYQQKPGQPPRLLIYGASTRATGIPARFSGSGSGAEFTLTISSLQSEDFVVYYCQQYNNWPPAFGGGTKVEIK
notes: as for B1
In the case of B2, the EC50 [2] is reported as > 200 nM.

B3: NI-308.6B11 (antibody, V domains shown)
VH: EVQLVQSGAEVKRPGASVKVSCKVSGYTLTELSMHWVRQAPGKGLEWMGGFDPEDGETVYAQKFQGRVTMTEDTSTDTAYMELSSLRSEDTALYHCATYGSSWHWNEGNEGSYYFDYWGQGTLVTVSS
VL: CDIQMTQSPSSLSASVGDRVTITCQASQDISIYLNWYQQKPGKAPKLLIYDASNLETGVPSRFSGSGSGTDFTFTISGLQPEDVARYYCQQYDDLPITFGQGTRLEIK
notes: as for B1
In the case of B3, the EC50 [3] is reported as 1.28 nM.

B4: NI-308.18F7 (antibody, V domains shown)
VH: QVQLQESGPGLVKPSETLSVTCTVSGGSINDYYWNWIRQPAGKGLEWIGRIYASGTINYNPSLQSRVTMSIDTSKNQFSLDLISVSAADTAVYYCARWGQVVGDYYYGMDVWGQGTTVTVSS
VL: EIVLTQSPLSLSVTPGEPASISCKSSQSLQHTNGYNYLDWYLLKPGQSPQLLIFLTSNRASGVPDRFSGSGSGTNFTLKISRVEAEDVGVYYCMEGIQLWTFGQGTKLEIK
notes: as for B1
B4: no binding (tested: about 4x10^5 pM (last point)) [4]; no binding (tested: about 4x10^5 pM (last point)) [5]; no binding (tested: about 4x10^5 pM (last point)) [6]. B4: no binding (tested: about 4x10^5 pM (last point)) [7].
